This experiment concerns the target T1, COL6A3 (peptide named COL6A3-642) peptide on HLA-A*02:01 (human).
T1 peptide: FLLDGSANV
As to the kind of experiment: multimer staining.

B1: COL6A3-642 C4 TCR (TRAV1-2*01F-TRBV9*01F) (TCR, V domains shown)
Valpha: GQNIDQPTEMTATEGAIVQINCTYQTSGFNGLFWYQQHAGEAPTFLSYNVLDGLEEKGRFSSFLSRSKGYSYLLLKELQMKDSASYLCAVRADRGSTLGRLYFGRGTQLTVWP
Vbeta: DSGVTQTPKHLITATGQRVTLRCSPRSGDLSVYWYQQSLDQGLQFLIQYYNGEERAKGNILERFSAQQFPDLHSELNLSSLELGDSALYFCASSVDGGASGEQFFGPGTRLTVL
Take B1: the binding result was “recognises”.

For the origin of these results see patent US20230227526A1 (published 2023).
